Measured values: publication PMC4646777 (Science Advances, 2015)
No end group written: not given here.

How the values were obtained:
Assay in all cases: AlphaScreen or HTRF
[1] = molecular target: T1, H6-tagged OsTPR2 N-terminal domain (TPD), TPR2(1–210) (rice, UniProt Q5NBT9 1-210)
T1 sequence (looked up): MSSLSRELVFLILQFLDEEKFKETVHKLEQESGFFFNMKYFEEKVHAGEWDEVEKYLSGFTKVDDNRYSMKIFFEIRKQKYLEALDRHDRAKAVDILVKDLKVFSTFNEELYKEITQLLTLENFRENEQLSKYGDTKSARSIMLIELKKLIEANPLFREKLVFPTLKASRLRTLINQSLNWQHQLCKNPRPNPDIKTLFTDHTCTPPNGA

[2] = molecular target: T2, H6-tagged Arabidopsis TPR3 N-terminal domain, TPR3(1–209) (Arabidopsis, UniProt Q84JM4 1-209)
T2 sequence (looked up): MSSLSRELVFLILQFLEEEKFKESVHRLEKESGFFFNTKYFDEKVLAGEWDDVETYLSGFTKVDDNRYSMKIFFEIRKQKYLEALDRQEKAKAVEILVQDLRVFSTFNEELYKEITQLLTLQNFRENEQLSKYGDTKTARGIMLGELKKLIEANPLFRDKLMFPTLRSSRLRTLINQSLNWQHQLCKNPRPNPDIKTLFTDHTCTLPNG

[3] = molecular target: T3, H6-tagged Arabidopsis TPR2 N-terminal domain, TPR2(1–209) (Arabidopsis, UniProt Q9LRZ0 1-209)
T3 sequence (looked up): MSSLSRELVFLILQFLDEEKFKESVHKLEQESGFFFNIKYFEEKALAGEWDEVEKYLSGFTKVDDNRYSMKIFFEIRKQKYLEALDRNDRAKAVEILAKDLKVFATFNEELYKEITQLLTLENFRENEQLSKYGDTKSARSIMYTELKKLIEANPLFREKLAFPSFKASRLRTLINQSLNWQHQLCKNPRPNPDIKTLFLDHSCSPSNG

[4] = molecular target: T4, H6-tagged Arabidopsis TPR4 N-terminal domain, TPR4(1–209) (Arabidopsis, UniProt Q27GK7 1-209)
T4 sequence (looked up): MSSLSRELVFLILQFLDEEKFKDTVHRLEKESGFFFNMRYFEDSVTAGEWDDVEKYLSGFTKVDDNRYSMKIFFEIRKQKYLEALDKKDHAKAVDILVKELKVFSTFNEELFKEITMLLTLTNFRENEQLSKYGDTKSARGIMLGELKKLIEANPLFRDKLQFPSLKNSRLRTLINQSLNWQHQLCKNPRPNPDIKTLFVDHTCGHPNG

[5] = molecular target: T5, H6-tagged OsTPL N-terminal domain (TPD), TPL(1–209) (rice, UniProt Q0J7U6 1-209)
T5 sequence (looked up): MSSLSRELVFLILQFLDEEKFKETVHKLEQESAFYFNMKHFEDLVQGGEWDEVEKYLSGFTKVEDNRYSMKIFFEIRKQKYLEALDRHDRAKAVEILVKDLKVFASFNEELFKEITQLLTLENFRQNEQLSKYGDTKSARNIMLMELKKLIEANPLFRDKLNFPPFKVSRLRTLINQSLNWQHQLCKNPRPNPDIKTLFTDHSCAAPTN

[6] = molecular target: T6, H6-tagged Arabidopsis TPR1 N-terminal domain, TPR1(1–209) (Arabidopsis, UniProt Q0WV90 1-209)
T6 sequence (looked up): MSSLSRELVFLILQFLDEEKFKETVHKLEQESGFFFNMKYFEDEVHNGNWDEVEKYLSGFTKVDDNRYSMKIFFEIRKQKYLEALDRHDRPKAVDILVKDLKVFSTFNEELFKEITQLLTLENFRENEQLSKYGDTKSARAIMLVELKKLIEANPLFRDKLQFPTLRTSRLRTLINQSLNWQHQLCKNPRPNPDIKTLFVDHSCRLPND

[7] = molecular target: T7, H6-tagged OsTPR1 N-terminal domain (TPD), TPR1(1–209) (rice, UniProt Q10NY2 1-209)
T7 sequence (looked up): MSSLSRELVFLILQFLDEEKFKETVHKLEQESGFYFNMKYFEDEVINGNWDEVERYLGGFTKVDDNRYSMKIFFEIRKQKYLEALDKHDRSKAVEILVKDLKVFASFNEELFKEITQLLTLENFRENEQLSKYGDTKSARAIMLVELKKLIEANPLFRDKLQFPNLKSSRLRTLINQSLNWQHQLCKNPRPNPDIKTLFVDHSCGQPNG

[8] = molecular target: T8, H6-tagged Arabidopsis TPL N-terminal domain, TPL(1–209) (Arabidopsis, UniProt Q94AI7 1-209)
T8 sequence (looked up): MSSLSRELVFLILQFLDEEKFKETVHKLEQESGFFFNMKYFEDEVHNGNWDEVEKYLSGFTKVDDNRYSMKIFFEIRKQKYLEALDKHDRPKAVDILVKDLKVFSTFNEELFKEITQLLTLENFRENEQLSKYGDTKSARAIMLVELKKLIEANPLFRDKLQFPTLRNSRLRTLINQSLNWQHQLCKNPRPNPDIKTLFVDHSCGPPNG

Measured: binding result

B1: biotinylated NINJA EAR motif peptide (12 amino acids, wild type) (peptide)
peptide: DNGLELSLGLSC
modifications: also: biotinylated, end not given here
binds: [1] | [2] | [3] | [4] | [5] | [6] | [7] | [8]
